Measurements taken from patent US20160024496.
Where two headings read alike, the source gives them in different places.

Experiments:
HMGB2 (Homo sapiens) = molecular target: T1, HMGB2 (Homo sapiens) (UniProt P26583); settings: proteome array, scrambled control
T1 sequence: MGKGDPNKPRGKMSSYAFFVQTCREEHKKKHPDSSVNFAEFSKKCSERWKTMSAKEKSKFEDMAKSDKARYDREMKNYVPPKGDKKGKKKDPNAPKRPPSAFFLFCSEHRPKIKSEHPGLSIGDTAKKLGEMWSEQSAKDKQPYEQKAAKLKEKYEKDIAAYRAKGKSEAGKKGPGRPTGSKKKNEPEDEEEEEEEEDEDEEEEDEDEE

TRIM32 (Homo sapiens) = TRIM32 (Homo sapiens) (UniProt Q13049); settings: proteome array, scrambled control
Sequence of TRIM32 (Homo sapiens) (Q13049 whole entry): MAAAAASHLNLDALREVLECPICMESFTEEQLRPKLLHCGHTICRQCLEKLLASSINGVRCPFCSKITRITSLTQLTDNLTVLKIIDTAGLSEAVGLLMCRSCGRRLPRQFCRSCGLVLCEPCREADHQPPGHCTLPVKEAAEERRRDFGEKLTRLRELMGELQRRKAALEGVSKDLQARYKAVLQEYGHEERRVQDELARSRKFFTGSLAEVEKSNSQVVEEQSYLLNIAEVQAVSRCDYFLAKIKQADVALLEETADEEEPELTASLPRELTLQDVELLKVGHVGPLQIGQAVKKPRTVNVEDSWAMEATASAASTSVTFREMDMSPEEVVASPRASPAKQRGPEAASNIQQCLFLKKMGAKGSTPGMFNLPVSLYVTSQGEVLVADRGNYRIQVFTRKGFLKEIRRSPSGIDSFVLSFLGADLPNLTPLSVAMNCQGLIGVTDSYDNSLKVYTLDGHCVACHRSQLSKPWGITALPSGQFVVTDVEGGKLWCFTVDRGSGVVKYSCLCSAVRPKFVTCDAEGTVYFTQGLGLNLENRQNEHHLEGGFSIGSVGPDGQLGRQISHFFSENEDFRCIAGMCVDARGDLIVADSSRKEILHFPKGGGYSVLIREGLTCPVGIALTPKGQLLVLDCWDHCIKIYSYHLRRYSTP

ADARB2 (Homo sapiens) = molecular target: T2, ADARB2 (Homo sapiens) (UniProt Q9NS39); settings: proteome array, scrambled control
T2 sequence: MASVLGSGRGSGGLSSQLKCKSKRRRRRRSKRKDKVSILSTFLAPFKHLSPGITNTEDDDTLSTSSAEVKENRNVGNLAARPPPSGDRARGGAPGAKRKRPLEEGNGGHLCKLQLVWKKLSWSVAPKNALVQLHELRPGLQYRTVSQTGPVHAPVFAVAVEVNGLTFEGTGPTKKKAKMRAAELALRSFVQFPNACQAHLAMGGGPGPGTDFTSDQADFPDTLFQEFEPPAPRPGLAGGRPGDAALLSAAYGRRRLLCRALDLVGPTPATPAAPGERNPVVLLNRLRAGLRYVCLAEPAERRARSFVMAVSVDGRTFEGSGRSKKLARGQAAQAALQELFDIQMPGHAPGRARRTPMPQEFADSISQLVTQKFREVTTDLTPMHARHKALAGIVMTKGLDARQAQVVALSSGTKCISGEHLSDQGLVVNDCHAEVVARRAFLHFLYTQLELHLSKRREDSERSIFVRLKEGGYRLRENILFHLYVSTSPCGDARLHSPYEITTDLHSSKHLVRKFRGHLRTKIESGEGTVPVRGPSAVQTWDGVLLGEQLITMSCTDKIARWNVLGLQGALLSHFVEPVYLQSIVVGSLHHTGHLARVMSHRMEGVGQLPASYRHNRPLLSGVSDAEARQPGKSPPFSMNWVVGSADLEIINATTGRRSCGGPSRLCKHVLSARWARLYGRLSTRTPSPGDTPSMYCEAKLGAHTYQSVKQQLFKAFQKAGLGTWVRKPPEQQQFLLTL

[1] = test system: ZNF695 (Homo sapiens), Q8IW36-1; settings: proteome array
Sequence of ZNF695 (Homo sapiens), Q8IW36-1 (Q8IW36 other isoform, or with tags, fused parts or gaps): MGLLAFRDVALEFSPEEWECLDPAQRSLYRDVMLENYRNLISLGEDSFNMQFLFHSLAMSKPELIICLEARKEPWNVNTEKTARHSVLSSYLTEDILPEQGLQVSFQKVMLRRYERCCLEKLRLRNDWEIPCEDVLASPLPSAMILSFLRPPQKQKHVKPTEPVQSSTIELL

[2] = test system: T3, DPH2 (Homo sapiens), Q9BQC3-2; settings: proteome array
T3 sequence: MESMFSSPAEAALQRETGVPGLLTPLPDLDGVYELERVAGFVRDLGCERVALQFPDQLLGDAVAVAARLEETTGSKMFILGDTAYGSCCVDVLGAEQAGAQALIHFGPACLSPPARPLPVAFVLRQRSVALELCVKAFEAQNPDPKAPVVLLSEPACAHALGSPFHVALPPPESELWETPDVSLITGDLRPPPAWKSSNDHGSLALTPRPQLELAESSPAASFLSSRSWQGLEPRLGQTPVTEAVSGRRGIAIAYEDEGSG

[3] = test system: MITF (Homo sapiens), O75030-2; settings: proteome array, scrambled control
Sequence of MITF (Homo sapiens), O75030-2 (O75030 other isoform, or with tags, fused parts or gaps): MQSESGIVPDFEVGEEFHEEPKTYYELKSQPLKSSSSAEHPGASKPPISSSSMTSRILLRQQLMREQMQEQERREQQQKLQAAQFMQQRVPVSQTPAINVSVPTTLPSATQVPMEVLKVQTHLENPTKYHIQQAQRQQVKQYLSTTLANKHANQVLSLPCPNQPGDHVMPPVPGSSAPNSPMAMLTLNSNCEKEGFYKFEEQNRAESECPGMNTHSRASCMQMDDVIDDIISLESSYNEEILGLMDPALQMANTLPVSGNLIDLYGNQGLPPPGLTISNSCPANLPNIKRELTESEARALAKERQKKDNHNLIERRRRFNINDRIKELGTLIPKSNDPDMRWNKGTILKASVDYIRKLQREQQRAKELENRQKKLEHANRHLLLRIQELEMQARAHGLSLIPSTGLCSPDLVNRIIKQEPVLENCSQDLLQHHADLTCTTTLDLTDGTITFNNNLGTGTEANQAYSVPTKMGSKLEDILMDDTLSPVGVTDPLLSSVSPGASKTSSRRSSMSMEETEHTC

NDST1 (Homo sapiens) = molecular target: T4, NDST1 (Homo sapiens) (UniProt P52848); settings: proteome array, scrambled control
T4 sequence: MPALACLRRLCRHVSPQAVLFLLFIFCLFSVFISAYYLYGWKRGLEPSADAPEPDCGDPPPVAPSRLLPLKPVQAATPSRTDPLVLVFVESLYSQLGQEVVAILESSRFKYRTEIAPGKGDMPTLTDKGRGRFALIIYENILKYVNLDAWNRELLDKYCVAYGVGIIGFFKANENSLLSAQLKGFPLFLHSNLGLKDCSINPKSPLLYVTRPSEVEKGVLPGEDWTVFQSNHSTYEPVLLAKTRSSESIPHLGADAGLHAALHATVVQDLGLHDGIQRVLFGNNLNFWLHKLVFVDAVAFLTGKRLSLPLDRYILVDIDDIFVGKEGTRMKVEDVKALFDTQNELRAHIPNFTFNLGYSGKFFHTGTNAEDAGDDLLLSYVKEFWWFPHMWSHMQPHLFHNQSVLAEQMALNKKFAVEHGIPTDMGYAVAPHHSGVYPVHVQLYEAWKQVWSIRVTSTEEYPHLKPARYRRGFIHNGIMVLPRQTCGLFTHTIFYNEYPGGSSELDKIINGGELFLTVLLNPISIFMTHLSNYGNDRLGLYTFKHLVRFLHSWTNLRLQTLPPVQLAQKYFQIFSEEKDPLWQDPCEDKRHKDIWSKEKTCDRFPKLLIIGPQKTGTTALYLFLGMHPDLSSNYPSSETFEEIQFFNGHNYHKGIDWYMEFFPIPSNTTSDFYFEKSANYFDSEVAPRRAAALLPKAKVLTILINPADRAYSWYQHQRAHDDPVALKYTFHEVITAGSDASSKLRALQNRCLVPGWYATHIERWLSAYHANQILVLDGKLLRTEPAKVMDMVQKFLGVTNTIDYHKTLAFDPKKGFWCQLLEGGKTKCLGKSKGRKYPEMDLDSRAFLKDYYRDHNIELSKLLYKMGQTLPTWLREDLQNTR

[4] = test system: SOX6 (Homo sapiens), P35712-4; settings: proteome array, scrambled control
Sequence of SOX6 (Homo sapiens), P35712-4 (P35712 other isoform, or with tags, fused parts or gaps): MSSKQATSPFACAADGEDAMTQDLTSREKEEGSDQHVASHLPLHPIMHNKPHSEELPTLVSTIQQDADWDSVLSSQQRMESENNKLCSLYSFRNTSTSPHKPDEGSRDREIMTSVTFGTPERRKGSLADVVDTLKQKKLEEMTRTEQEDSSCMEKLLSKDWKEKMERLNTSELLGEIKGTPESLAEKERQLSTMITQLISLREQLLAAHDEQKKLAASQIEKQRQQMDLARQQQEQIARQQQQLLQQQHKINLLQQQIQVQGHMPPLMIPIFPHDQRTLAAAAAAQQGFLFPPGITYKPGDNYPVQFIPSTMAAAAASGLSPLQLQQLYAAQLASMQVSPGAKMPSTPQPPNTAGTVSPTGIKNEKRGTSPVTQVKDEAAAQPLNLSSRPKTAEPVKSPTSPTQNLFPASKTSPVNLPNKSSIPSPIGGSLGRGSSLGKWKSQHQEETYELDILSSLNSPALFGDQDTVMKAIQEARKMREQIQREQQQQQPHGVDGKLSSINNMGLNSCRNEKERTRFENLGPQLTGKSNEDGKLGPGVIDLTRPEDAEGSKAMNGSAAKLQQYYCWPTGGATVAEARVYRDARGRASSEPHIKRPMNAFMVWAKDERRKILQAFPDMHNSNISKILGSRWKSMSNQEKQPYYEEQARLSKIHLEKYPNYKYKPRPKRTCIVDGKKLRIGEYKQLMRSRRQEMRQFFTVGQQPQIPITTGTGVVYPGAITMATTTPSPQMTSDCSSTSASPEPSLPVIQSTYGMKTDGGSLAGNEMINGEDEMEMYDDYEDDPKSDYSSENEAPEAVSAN

NUDT6 (Homo sapiens) = molecular target: T5, NUDT6 (Homo sapiens) (UniProt P53370); settings: proteome array, scrambled control
T5 sequence: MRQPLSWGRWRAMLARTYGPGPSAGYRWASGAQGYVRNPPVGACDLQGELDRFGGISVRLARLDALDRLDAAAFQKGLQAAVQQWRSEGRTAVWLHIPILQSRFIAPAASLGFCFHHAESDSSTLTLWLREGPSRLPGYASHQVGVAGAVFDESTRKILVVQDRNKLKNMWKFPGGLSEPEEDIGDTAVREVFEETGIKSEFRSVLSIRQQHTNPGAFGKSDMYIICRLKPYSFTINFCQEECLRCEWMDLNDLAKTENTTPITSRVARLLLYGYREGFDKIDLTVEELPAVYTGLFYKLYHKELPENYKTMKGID

PGA5 (Homo sapiens) = PGA5 (Homo sapiens) (UniProt P0DJD9); settings: proteome array, scrambled control
Sequence of PGA5 (Homo sapiens) (P0DJD9 16-388): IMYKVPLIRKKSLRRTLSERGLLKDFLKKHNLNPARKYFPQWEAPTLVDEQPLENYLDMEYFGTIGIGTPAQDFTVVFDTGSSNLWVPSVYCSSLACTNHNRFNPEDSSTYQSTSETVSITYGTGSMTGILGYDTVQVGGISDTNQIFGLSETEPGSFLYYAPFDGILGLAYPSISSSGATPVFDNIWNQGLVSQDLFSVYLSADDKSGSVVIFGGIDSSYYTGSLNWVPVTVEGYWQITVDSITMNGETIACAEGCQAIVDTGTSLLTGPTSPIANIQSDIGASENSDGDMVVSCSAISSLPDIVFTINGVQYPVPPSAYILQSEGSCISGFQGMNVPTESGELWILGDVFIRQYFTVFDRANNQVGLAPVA

ORAOV1 (Homo sapiens) = molecular target: T6, ORAOV1 (Homo sapiens) (UniProt Q8WV07); settings: proteome array, scrambled control
T6 sequence: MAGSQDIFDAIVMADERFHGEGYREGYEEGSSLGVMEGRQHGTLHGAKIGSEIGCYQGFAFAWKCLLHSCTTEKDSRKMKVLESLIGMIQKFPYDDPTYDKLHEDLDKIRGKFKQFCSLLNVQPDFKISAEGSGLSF

RANGAP1 (Homo sapiens) = molecular target: T7, RANGAP1 (Homo sapiens) (UniProt P46060); settings: proteome array, scrambled control
T7 sequence: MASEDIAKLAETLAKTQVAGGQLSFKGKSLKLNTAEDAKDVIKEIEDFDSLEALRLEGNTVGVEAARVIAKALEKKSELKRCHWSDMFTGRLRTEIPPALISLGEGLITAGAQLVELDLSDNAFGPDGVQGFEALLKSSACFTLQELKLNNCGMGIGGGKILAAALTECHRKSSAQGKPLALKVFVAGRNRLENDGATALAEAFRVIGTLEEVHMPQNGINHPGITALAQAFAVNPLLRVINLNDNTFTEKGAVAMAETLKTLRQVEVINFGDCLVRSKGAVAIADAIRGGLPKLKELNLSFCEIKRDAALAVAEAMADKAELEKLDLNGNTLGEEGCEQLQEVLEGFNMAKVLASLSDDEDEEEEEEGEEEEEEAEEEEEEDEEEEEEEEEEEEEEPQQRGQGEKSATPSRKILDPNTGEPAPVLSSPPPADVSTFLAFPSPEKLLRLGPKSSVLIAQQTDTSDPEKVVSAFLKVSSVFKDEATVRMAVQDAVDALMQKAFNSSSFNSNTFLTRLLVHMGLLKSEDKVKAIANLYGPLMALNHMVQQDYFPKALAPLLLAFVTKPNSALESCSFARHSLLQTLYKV

CYP2C9 (Homo sapiens) = CYP2C9 (Homo sapiens) (UniProt P11712); settings: proteome array, scrambled control
Sequence of CYP2C9 (Homo sapiens) (P11712 whole entry): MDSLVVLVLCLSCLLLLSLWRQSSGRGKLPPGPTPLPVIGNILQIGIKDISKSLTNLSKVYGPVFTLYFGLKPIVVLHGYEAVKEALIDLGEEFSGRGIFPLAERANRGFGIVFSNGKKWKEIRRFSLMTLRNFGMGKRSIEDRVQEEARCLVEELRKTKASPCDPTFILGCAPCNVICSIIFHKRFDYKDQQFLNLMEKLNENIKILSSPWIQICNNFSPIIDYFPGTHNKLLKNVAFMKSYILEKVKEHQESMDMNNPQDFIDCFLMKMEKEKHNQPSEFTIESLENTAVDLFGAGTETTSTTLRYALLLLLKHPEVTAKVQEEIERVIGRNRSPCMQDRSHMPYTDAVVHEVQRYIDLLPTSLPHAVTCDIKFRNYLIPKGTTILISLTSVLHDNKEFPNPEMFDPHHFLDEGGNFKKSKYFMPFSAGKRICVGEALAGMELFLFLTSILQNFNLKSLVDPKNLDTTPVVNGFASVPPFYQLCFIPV

TCL1B (Homo sapiens) = molecular target: T8, TCL1B (Homo sapiens) (UniProt O95988); settings: proteome array, scrambled control
T8 sequence: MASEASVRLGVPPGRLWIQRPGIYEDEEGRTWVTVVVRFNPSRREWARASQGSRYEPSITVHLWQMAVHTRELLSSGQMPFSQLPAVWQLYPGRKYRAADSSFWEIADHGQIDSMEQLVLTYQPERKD

WBP11 (Homo sapiens) = WBP11 (Homo sapiens) (UniProt Q9Y2W2); settings: proteome array, scrambled control
Sequence of WBP11 (Homo sapiens) (Q9Y2W2 whole entry): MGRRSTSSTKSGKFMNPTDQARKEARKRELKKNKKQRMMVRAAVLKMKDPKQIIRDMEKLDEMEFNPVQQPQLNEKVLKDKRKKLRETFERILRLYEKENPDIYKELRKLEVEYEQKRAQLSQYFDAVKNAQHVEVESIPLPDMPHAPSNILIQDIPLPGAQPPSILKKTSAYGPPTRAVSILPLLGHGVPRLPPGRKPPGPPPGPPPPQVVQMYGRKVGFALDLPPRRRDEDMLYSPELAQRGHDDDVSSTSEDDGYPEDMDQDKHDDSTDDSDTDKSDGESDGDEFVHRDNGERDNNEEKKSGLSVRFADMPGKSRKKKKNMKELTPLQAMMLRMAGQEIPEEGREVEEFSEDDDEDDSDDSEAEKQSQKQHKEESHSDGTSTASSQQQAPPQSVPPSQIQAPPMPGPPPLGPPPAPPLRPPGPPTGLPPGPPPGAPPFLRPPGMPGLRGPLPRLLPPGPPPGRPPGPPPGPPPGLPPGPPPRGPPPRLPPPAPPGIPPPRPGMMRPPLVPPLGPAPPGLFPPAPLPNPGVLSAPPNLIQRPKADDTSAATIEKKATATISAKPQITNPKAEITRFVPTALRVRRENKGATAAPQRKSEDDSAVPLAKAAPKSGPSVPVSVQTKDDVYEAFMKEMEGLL

MPP7 (Homo sapiens) = molecular target: T9, MPP7 (Homo sapiens) (UniProt Q5T2T1); settings: proteome array, scrambled control
T9 sequence: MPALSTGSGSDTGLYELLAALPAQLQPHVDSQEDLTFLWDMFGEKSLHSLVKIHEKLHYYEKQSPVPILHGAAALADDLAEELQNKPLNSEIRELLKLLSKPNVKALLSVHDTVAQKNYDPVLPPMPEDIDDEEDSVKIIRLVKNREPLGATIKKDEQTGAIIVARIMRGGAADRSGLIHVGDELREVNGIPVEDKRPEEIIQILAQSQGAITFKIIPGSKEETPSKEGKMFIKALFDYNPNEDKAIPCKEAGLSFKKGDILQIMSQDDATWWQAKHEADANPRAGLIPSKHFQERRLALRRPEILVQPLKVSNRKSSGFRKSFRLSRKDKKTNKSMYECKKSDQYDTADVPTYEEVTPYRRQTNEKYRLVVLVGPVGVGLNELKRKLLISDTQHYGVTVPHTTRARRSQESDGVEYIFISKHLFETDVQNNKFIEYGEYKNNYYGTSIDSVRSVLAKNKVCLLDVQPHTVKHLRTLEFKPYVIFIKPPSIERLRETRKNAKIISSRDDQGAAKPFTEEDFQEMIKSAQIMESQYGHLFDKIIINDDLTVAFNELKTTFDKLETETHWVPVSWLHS

[5] = test system: T10, DAZ2 (Homo sapiens), Q13117-3; settings: proteome array, scrambled control
T10 sequence: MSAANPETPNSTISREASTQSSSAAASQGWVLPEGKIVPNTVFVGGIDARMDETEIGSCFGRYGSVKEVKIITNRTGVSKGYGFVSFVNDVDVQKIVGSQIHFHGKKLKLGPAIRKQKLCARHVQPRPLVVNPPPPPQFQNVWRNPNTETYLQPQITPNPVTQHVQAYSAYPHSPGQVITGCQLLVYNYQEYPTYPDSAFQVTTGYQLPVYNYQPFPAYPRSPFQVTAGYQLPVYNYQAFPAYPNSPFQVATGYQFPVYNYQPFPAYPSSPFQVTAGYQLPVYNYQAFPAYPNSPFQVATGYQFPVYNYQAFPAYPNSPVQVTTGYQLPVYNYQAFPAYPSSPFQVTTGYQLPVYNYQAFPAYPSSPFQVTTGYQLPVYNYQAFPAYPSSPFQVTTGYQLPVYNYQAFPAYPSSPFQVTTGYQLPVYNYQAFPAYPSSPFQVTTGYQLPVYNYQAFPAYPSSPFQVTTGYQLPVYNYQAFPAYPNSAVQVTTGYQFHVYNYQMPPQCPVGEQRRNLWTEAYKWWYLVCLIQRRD

JARID2 (Homo sapiens) = JARID2 (Homo sapiens) (UniProt Q92833); settings: proteome array, scrambled control
Sequence of JARID2 (Homo sapiens) (Q92833 whole entry): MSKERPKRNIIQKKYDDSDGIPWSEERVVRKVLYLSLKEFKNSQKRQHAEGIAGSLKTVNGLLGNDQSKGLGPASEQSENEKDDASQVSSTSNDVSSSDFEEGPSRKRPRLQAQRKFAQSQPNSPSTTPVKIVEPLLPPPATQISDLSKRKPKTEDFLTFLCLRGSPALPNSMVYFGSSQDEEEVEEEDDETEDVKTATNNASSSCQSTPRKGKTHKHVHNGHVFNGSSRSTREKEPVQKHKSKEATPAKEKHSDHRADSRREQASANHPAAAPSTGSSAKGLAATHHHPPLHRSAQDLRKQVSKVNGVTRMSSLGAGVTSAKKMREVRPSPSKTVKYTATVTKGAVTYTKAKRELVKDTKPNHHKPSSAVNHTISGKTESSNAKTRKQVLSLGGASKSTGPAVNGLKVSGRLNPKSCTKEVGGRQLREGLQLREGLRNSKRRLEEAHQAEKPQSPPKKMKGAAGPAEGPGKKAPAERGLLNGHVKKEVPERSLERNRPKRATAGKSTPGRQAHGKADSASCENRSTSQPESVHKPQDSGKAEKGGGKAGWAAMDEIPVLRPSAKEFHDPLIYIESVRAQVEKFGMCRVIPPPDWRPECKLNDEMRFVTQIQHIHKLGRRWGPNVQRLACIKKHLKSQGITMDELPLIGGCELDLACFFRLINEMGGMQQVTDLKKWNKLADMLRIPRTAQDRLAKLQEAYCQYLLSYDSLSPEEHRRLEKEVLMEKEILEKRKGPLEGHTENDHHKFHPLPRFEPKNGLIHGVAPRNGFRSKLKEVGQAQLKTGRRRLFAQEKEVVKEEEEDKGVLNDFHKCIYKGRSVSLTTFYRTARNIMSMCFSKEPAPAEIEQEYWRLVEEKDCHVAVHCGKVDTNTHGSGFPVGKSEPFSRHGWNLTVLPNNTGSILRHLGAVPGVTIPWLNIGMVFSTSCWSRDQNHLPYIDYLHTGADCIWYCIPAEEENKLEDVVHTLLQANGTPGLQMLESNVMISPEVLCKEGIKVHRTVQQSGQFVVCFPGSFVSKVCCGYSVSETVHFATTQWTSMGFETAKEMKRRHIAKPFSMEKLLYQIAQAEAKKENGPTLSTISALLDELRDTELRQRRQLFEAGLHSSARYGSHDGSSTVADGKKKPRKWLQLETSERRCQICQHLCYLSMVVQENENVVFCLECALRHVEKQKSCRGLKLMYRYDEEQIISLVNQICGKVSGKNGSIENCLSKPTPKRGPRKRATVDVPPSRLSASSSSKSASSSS

PTER (Homo sapiens) = molecular target: T11, PTER (Homo sapiens) (UniProt Q96BW5); settings: proteome array, scrambled control
T11 sequence: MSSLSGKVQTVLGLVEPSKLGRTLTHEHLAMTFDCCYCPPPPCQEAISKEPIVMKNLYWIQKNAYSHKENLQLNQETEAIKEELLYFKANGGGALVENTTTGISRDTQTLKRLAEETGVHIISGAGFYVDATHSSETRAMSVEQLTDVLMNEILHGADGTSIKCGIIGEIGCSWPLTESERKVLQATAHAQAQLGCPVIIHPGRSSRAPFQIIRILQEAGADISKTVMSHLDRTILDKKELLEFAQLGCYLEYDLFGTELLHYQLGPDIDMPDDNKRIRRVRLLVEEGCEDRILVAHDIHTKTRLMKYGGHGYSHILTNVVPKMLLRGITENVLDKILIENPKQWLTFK

Substance: GC-scrambled RNA
- binding signal (HMGB2 (Homo sapiens)): 1.23 Z-score
- binding signal (TRIM32 (Homo sapiens)): 4.63 Z-score
- binding signal (ADARB2 (Homo sapiens)): -0.2 Z-score
- binding signal ([1]; scrambled control): 2.18 Z-score
- binding signal ([2]; scrambled control): 3.43 Z-score
- binding signal [3]: 6.71 Z-score
- binding signal (NDST1 (Homo sapiens)): 8.06 Z-score
- binding signal [4]: 1.16 Z-score
- binding signal (NUDT6 (Homo sapiens)): 8.38 Z-score
- binding signal (PGA5 (Homo sapiens)): 2.96 Z-score
- binding signal (ORAOV1 (Homo sapiens)): 0.41 Z-score
- binding signal (RANGAP1 (Homo sapiens)): 1.21 Z-score
- binding signal (CYP2C9 (Homo sapiens)): 1.49 Z-score
- binding signal (TCL1B (Homo sapiens)): 5.42 Z-score
- binding signal (WBP11 (Homo sapiens)): -0.17 Z-score
- binding signal (MPP7 (Homo sapiens)): 0.3 Z-score
- binding signal [5]: 7.8 Z-score
- binding signal (JARID2 (Homo sapiens)): 0.64 Z-score
- binding signal (PTER (Homo sapiens)): 4.09 Z-score

Substance: GGGGCCGGGGCCGGGGCCGGGGCCGGGGCCGGGGCCGGG [GGGGCCx6.5 RNA]
- binding signal ([1]; [none], delta Z 2.58): 4.76 Z-score
- binding signal ([2]; [none], delta Z 10.61): 14 Z-score
